Source: patent US20180155425A1 (ZONHON BIOPHARMA INSTITUTE, published 2018)

Legend:
[1] = biological target: T1, human CD26 on the surfaces of tumor cells (human, UniProt P27487 1-766); experiment: cell-based or functional assay
[2] = biological target: T1, human CD26 on the surfaces of tumor …; experiment: cell-based or functional assay; remark: listed apart in the source
CD26 protein = biological target: T2, CD26 protein (UniProt P27487 39-766, limits assumed); experiment: BLI, Fortebio Qke, AR2G amine reactive biosensor
T2 construct: Soluble CD26 protein in the biolayer interferometry assay on AR2G sensors
Text: Test method: The affinities of the bispecific antibodies to CD26 protein were detected by using the Molecular Interaction Instrument Fortebio Qke, following the instruction of operation of immersive readable Amine Reactive 2nd Generation Biosensor (Fortebio, AR2G).

[3] = biological target: T1, human CD26 on the surfaces of tumor …; experiment: flow cytometry on PC-3 cells, anti-His-tag-Alexa Fluor 488 detection
[4] = biological target: T1, human CD26 on the surfaces of tumor …; experiment: flow cytometry on 786-0 cells, anti-His-tag-Alexa Fluor 488 detection
Method: (§1) Test method: 786-0 and NCI-H2452 cells in the logarithmic growth phase were trypsinized. The cells were harvested by centrifugation at 1000 rpm for 5 min, and washed twice with PBS buffer. One portion of 1.0×10⁶ cells was re-suspended in 250 μL PBS butler, and BsAb1, BsAb2, BsAb3, and BsAb4 were respectively added to give a final concentration of […] and incubated at room temperature for 1 hr. After incubation, the cells were washed twice with PBS buffer, and then 250 μL of Anti--His-tag-Alexa Fluor 488 antibody that was 1:2000 diluted was added and incubated at room temperature for 1 hr. After incubation, the cells were washed thrice with PBS, re-suspended in 300 μL PBS buffer, and detected by flow cytometer.

[5] = biological target: T1, human CD26 on the surfaces of tumor …; experiment: flow cytometry on Caki-1 cells, anti-His-tag-Alexa Fluor 488 detection
[6] = biological target: T1, human CD26 on the surfaces of tumor …; experiment: flow cytometry on COLO205 cells, anti-His-tag-Alexa Fluor 488 detection
[7] = biological target: T1, human CD26 on the surfaces of tumor …; experiment: flow cytometry on NCI-H2452 cells, anti-His-tag-Alexa Fluor 488 detection
Method: as §1

[8] = biological target: T3, human CD3 on the surfaces of Jurkat cells / T cells (human, UniProt P07766 23-207; P09693 23-182; P04234 22-171); experiment: flow cytometry on Jurkat (CD3+) cells, antibody at 10 µg/mL, anti-His-tag-Alexa Fluor 488 detection
T3 construct: whole, on cells; CD3 is endogenous on Jurkat cells and on enriched human T cells; also called CD3 molecules on the surfaces of Jurkat cells
Method: Test method: Jurkat cells in the logarithmic growth phase were harvested by centrifugation at 1000 rpm for 5 min, and washed twice with PBS buffer. One portion of 1.0×10⁶ cells was re-suspended in 250 μL PBS buffer, and BsAb1, BsAb2, BsAb3, and BsAb4 were respectively added to give a final concentration of 10 μg/mL and incubated at room temperature for 1 hour. After incubation, the cells were washed twice with PBS, and then 250 μL of Anti-His-tag-Alexa Fluor 488 antibody that was 1:2000 diluted was added and incubated at room temperature for 1 hour. After incubation, the cells were washed thrice with PBS buffer, re-suspended in 300 μL PBS, and detected by flow cytometer.

[9] = biological target: T1, human CD26 on the surfaces of tumor …; experiment: cell-based or functional assay; remark: listed apart in the source
[10] = biological target: T1, human CD26 on the surfaces of tumor …; experiment: cell-based or functional assay; remark: listed apart in the source

Binder | Lysis (%) of 786-0 cells by PBMC, antibody at 10 ng/mL [1] | Lysis rate (%) of COLO205 cells by PBMC, antibody at 10 ng/mL [2] | Lysis rate (%) of Caki-1 cells by PBMC, antibody at 10 ng/mL [2] | Lysis rate (%) of NCI-H2452 cells by PBMC, antibody at 10 ng/mL [2] | Lysis rate (%) of PC-3 cells by PBMC, antibody at 10 ng/mL [2] | Kd (CD26 protein) | Binding rate [3] | Binding rate [4] | Binding rate [5] | Binding rate [6] | Binding rate [7] | binding rate to Jurkat cells [8] | Lysis rate (%) of 786-0 cells by T cells, antibody at 10^2 pg/mL [9] | Lysis rate (%) of 786-0 cells by T cells, antibody at 10^3 pg/mL [9] | Lysis rate (%) of 786-0 cells by T cells, antibody at 10^4 pg/mL [9] | Lysis rate (%) of 786-0 cells by T cells, antibody at 10^5 pg/mL [9] | IC50 of T cell-mediated killing of 786-0 cells [10]
ZHB BsAb-1 (bispecific antibody, detection on cells used an anti-His-tag antibody; also called anti-CD26×anti-CD3 bispecific antibody) EVQLVESGAGVKQPGGTLRLTCTASGFSLTTYGVHWVRQAPGKGLEWVGVIWGDGRTDYDAAFMSRVTISKDTSKSTVYLQMNSLRAEDTAVYYCMRNRHDWFDYWGQGTTVTVSSGGGGSGGGGSGGGGSDILLTQSPSSLSATPGERATITCRASQGIRNNLNWYQQKPGQAPRLLIYYSSNLQSGVPSRFSGSGSGTDFTLTISRLQPEDVAAYYCQQSIKLPFTFGSGTKVEIKSGGGGSDVQLVQSGAEVKKPGASVKVSCKASGYTFTRYTMHWVRQAPGQGLEWIGYINPSRGYTNYADSVKGRFTITTDKSTSTAYMELSSLRSEDTATYYCARYYDDHYCLDYWGQGTTVTVSSGEGTSTGSGGSGGSGGADDIVLTQSPATLSLSPGERATLSCRASQSVSYMNWYQQKPGKAPKRWIYDTSKVASGVPARFSGSGSGTDYSLTINSLEAEDAATYYCQQWSSNPLTFGGGTKVEIK | 15.9% | 1.7% | 0.3% | 0.2% | 45.4% | 9.29 nM | 1.2% | 41.1% | 1.1% | 0.1% | 1.1% | 0.1% |  |  |  |  | 
anti-CD26-scFv (scFv, Expressed in Pichia pastoris; also called anti-CD26 single-chain antibody; parent single-chain antibody) scFv: EVQLVESGAGVKQPGGTLRLTCTASGFSLTTYGVHWVRQAPGKGLEWVGVIWGDGRTDYDAAFMSRVTISKDTSKSTVYLQMNSLRAEDTAVYYCMRNRHDWFDYWGQGTTVTVSSGGGGSGGGGSGGGGSDILLTQSPSSLSATPGERATITCRASQGIRNNLNWYQQKPGQAPRLLIYYSSNLQSGVPSRFSGSGSGTDFTLTISRLQPEDVAAYYCQQSIKLPFTFGSGTKVEIKHHHHHH | 4.1% |  |  |  |  | 1 nM |  |  |  |  |  |  | 10.8% | 9.6% | 10.9% | 7.5% | 
ZHB BsAb-2 (bispecific antibody, Single-chain tandem scFv; detection on cells used an anti-His-tag antibody; also called anti-CD26×anti-CD3 bispecific antibody) DILLTQSPSSLSATPGERATITCRASQGIRNNLNWYQQKPGQAPRLLIYYSSNLQSGVPSRFSGSGSGTDFTLTISRLQPEDVAAYYCQQSIKLPFTFGSGTKVEIKGGGGSGGGGSGGGGSEVQLVESGAGVKQPGGTLRLTCTASGFSLTTYGVHWVRQAPGKGLEWVGVIWGDGRTDYDAAFMSRVTISKDTSKSTVYLQMNSLRAEDTAVYYCMRNRHDWFDYWGQGTTVTVSSGGGGSDVQLVQSGAEVKKPGASVKVSCKASGYTFTRYTMHWVRQAPGQGLEWIGYINPSRGYTNYADSVKGRFTITTDKSTSTAYMELSSLRSEDTATYYCARYYDDHYCLDYWGQGTTVTVSSGEGTSTGSGGSGGSGGADDIVLTQSPATLSLSPGERATLSCRASQSVSYMNWYQQKPGKAPKRWIYDTSKVASGVPARFSGSGSGTDYSLTINSLEAEDAATYYCQQWSSNPLTFGGGTKVEIK | 27.4% | 17% | 26.5% | 32.3% | 39.6% | 3.44 nM | 42.8% | 99.6% | 49.9% | 14% | 71.8% | 92% | 21.8% | 59.2% | 69.6% | 76.3% | 1.39 ng/mL
ZHB BsAb-4 (bispecific antibody, Single-chain tandem scFv; detection on cells used an anti-His-tag antibody; also called anti-CD26×anti-CD3 bispecific antibody) DVQLVQSGAEVKKPGASVKVSCKASGYTFTRYTMHWVRQAPGQGLEWIGYINPSRGYTNYADSVKGRFTITTDKSTSTAYMELSSLRSEDTATYYCARYYDDHYCLDYWGQGTTVTVSSGEGTSTGSGGSGGSGGADDIVLTQSPATLSLSPGERATLSCRASQSVSYMNWYQQKPGKAPKRWIYDTSKVASGVPARFSGSGSGTDYSLTINSLEAEDAATYYCQQWSSNPLTFGGGTKVEIKSGGGGSDILLTQSPSSLSATPGERATITCRASQGIRNNLNWYQQKPGQAPRLLIYYSSNLQSGVPSRFSGSGSGTDFTLTISRLQPEDVAAYYCQQSIKLPFTFGSGTKVEIKGGGGSGGGGSGGGGSEVQLVESGAGVKQPGGTLRLTCTASGFSLTTYGVHWVRQAPGKGLEWVGVIWGDGRTDYDAAFMSRVTISKDTSKSTVYLQMNSLRAEDTAVYYCMRNRHDWFDYWGQGTTVTVSS | 25.5% | 5.4% | 0.9% | 0.5% | 53.1% | 1.97 nM | 62.9% | 98% | 1.1% | 0.2% | 1.4% | 56.5% | 24.3% | 38.8% | 64.8% | 75.4% | 3.1 ng/mL
ZHB BsAb-3 (bispecific antibody, Single-chain tandem scFv; detection on cells used an anti-His-tag antibody; also called anti-CD26×anti-CD3 bispecific antibody) DVQLVQSGAEVKKPGASVKVSCKASGYTFTRYTMHWVRQAPGQGLEWIGYINPSRGYTNYADSVKGRFTITTDKSTSTAYMELSSLRSEDTATYYCARYYDDHYCLDYWGQGTTVTVSSGEGTSTGSGGSGGSGGADDIVLTQSPATLSLSPGERATLSCRASQSVSYMNWYQQKPGKAPKRWIYDTSKVASGVPARFSGSGSGTDYSLTINSLEAEDAATYYCQQWSSNPLTFGGGTKVEIKSGGGGSEVQLVESGAGVKQPGGTLRLTCTASGFSLTTYGVHWVRQAPGKGLEWVGVIWGDGRTDYDAAFMSRVTISKDTSKSTVYLQMNSLRAEDTAVYYCMRNRHDWFDYWGQGTTVTVSSGGGGSGGGGSGGGGSDILLTQSPSSLSATPGERATITCRASQGIRNNLNWYQQKPGQAPRLLIYYSSNLQSGVPSRFSGSGSGTDFTLTISRLQPEDVAAYYCQQSIKLPFTFGSGTKVEIK | 4.3% | 5.3% | 0.8% | 0.7% | 1.7% | 10 nM | 0.1% | 9.4% | 1.2% | 0.4% | 0.7% | 0.2% |  |  |  |  | 
